Data taken from paper PMC3763469 (Molecular cell, 2011).

Assays:
[1] = target: FlAsH-Saci_1373 (ESCRT-III wH domain, residues 194-261) (S. acidocaldarius) (UniProt Q4J924); assay: fluorescence polarisation
[2] = target: T1, S. solfataricus ESCRT-III wH domain (His6-SSO0910, residues 210-259) (S. solfataricus, UniProt Q97ZJ6 210-259); assay: crystal structure
T1 chain (looked up): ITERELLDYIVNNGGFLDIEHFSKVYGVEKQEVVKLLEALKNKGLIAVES

[3] = target: T2, GST fused to full length ESCRT-III (Saci_1373) (S. acidocaldarius, UniProt Q4J924 1-261); assay: pull-down
T2 sequence (looked up): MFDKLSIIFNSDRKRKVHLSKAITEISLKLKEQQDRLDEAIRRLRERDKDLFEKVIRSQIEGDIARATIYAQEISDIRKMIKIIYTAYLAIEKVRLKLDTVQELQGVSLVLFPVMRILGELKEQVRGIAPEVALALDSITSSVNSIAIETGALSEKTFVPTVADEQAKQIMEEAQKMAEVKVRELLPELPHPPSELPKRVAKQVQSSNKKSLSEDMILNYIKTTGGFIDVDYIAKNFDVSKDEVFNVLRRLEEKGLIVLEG

[4] = target: T3, full length ESCRT-III (Saci_1373), purified recombinant (S. acidocaldarius, UniProt Q4J924 1-261); assay: co-sedimentation
T3 sequence (looked up): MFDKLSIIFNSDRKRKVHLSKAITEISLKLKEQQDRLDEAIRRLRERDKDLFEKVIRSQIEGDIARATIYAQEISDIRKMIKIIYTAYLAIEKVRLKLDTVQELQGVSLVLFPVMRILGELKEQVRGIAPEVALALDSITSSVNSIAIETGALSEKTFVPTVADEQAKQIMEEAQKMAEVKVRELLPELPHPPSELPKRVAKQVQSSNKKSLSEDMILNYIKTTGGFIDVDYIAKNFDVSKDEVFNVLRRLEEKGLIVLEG

“GST-tagged CdvA residues 208-238 (from UniProt Q4J923 208-238) (domain or fragment)” gave a Kd [1] of 6 µM.

SEIPLPIPVKVINTL (peptide, UniProt Q97ZJ5 251-265, looked up) [S. solfataricus CdvA E3B peptide (SSO0911, residues 251-265)]: binds [2].

B1: CdvA (Saci_1374) residues 69-238 (domain or fragment, S. acidocaldarius, UniProt Q4J923 69-238, looked up)
chain: DWKTDSLKVLGQMEKIRKRQRALEELYSRQEIPKSTYEDMKRKLDSELLKIRDEHSRLKGRLKDRLNSIEDQVAQIDRAMIALKINYISGEIPELAYKNSMEILRLSRDSYALERDDIKKTLDKLDGLDKEVIELKPSASLNTSTEQSNKNEGNKSEVSVPIPVRVINTL
B1: binds [3]; binds [4].
